Results from article PMC5775257.
pKd: −log10 of the molar value.

Tested on: Roquin-1 (aa 2-441);NUFIP2 (aa 255-411) (mouse;human)
Assay: EMSA
Conditions: 10 mM HEPES pH 7.5, 150 mM NaCl, 2 mM MgCl2, 4% glycerol, tRNA 30 ug/mL, 5 nM labeled RNA, 30 min at 25 °C; native 4% TBE PAGE

Substance | pKd
ICOS 3'-UTR tandem cis-element (nt 2183-2271) | 7.95
Ox40 3'-UTR tandem element (nt 1064-1126) | 7.97
